Test results as given in US20030148956A1 (PROCTER AND GAMBLE, published 2003).
Ends that are not written are not given here.

T1: corticotropin releasing factor 2 receptor
T1 sequence (Q13324 whole entry, species assumed, looked up): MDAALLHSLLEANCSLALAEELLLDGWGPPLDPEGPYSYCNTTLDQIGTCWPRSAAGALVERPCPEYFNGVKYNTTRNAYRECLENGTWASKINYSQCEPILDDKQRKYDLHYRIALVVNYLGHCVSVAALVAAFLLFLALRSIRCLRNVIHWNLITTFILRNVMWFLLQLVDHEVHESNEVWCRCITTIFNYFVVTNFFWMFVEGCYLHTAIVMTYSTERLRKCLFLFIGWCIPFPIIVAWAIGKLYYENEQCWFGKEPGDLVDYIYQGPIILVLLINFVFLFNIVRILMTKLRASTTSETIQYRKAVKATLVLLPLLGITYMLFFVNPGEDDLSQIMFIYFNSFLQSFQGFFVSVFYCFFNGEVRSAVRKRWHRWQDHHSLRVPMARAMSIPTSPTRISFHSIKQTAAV


Experiments:
[1] = molecular target: T1, corticotropin releasing factor 2 …; test: cell-based or functional assay
[2] = molecular target: corticotropin releasing factor 1 receptor; test: cell-based or functional assay

Binder | CRF2R EC50 [1] | CRF2R Emax % [1] | CRF1R EC50 [2] | CRF1R Emax % [2]
NDDPPISIDLPLQLLRNMIEMARIENEREQAGLNAKYLAEV-NH2 [SEQ ID NO 270] | 100 nM | 19.3% | 1000 nM | 7.85%
ZGPPISIDLPFQLLRKVIEIEKQEKEKQQAANNAELLAEI (C-terminal amide) [SEQ ID NO 272] | 23.3 nM | 100% | 1000 nM | 51.1%
ZGPPISIDLPFQLLRKVIEIEKQEKEKQQAANNANLLANI (C-terminal amide) [SEQ ID NO 275] | 46.6 nM | 100% | 1000 nM | 38.3%
ZGPPISIDLPFQLLRKVIEIEKQEKEKQQAANNAHLLAHI (C-terminal amide) [SEQ ID NO 277] | 28.2 nM | 100% | 1000 nM | 39.9%
ZGPPISIDLPIFLLRKVIEIEKQEKEKQQAANNALLLATI (C-terminal amide) [SEQ ID NO 280] | 100 nM | 82.3% | 1000 nM | 11.8%
ZGPPISIDLPFQLLRKVIEIEKQEKEKQQAANNAKLLAKI (C-terminal amide) [SEQ ID NO 274] | 13.8 nM | 100% | 508 nM | 80.9%
ZGPPISIDLPIFLLRKMIEIEKQEKEKQQAANNARLLARI (C-terminal amide) [SEQ ID NO 282] | 25.8 nM | 60.8% | 1000 nM | 21.8%
ZGPPISIDLPFQLLRKVIEIEKQEKEKQQAANNARLLARI (C-terminal amide) [SEQ ID NO 279] | 13.1 nM | 100% | 1000 nM | 93%
ZGPPISIDLPFQLLRKVIEIEKQEKEKQQAANNAQLLAQI (C-terminal amide) [SEQ ID NO 276] | 22.1 nM | 100% | 1000 nM | 75.7%
ZGPPISIDLPFQLLRKVIEIEKQEKEKQQAANNARLLDTI (C-terminal amide) [SEQ ID NO 278] | 19.6 nM | 100% | 1000 nM | 48.7%
ZGPPISIDLPIFLLRKVIEIEKQEKEKQQAANNARLLARI (C-terminal amide) [SEQ ID NO 281] | 100 nM | 78.8% | 1000 nM | 12.2%
ZGPPISIDLPFQLLRKVIEIEKQEKEKQQAANNAQLLAHI (C-terminal amide) [SEQ ID NO 273] | 31.3 nM | 100% | 1000 nM | 59.3%
NDDPPISIDLPLILLRNMIEMARIENEREQAGLNAKYLAEV-NH2 [SEQ ID NO 269] | 100 nM | 77.3% | 1000 nM | 44.3%
NDDPPISIDLPLLLLRNMIEMARIENEREQAGLNAKYLAEV-NH2 [SEQ ID NO 268] | 100 nM | 59% | 1000 nM | 14.2%
NDDPPISIDLPLYLLRNMIEMARIENEREQAGLNAKYLAEV-NH2 [SEQ ID NO 271] | 48.1 nM | 69% | 815 nM | 80.7%

The remaining lines, values ahead:

CRF2R EC50 [1] | CRF2R Emax % [1] | CRF1R EC50 [2] | CRF1R Emax % [2] | Binder
11.3 nM | 100% | 1000 nM |  | ZGPPISIDLPYQLLRKMIEIEKQEKEKQQAANNARLLAR (C-terminal amide) [SEQ ID NO 287]
14.7 nM | 100% | 838 nM |  | ZGPPISIDLPYQLLRKMIEIEKQEKEKQQAANNARLLAR (C-terminal amide) [SEQ ID NO 288]
13.5 nM | 92.5% | 1000 nM | 19.2% | ZGPPISIDLPYQLLRKVIEIEKQEKEKQQAANNARLLARI (C-terminal amide) [SEQ ID NO 286]
100 nM | 63.8% | 1000 nM | 4.75% | ZGPPISIDLPTWLLRKVIEIEKQEKEKQQAANNARLLARI (C-terminal amide) [SEQ ID NO 291]
55 nM | 67.6% | 1000 nM | 5.3% | ZGPPISIDLPIILLRKVIEIEKQEKEKQQAANNARLLARI (C-terminal amide) [SEQ ID NO 295]
13.9 nM | 97.1% | 1000 nM | 11.1% | ZGPPISIDLPQILLRKMIEIEKQEKEKQQAANNARLLARI (C-terminal amide) [SEQ ID NO 285]
46.4 nM | 71.5% | 1000 nM | 10.2% | ZGPPISIDLPQILLRKVIEIEKQEKEKQQAANNALLLATI (C-terminal amide) [SEQ ID NO 299]
82 nM | 98.8% | 1000 nM | 20.1% | ZGPPISIDLPIFLLRKMIEIEKQEKEKQQAANNALLLATI (C-terminal amide) [SEQ ID NO 298]
10.6 nM | 72% | 635 nM | 100% | ZGPPISIDLPYQLLRKVIEIEKQEKEKQQAANNRLLLDTI (C-terminal amide) [SEQ ID NO 283]
100 nM | 86.1% | 1000 nM | 7% | ZGPPISIDLPTWLLRKMIEIEKQEKEKQQAANNARLLARI (C-terminal amide) [SEQ ID NO 292]
100 nM | 100% | 1000 nM | 13.6% | ZGPPISIDLPQILLRKVIEIEKQEKEKQQAANNARLLARI (C-terminal amide) [SEQ ID NO 294]
100 nM | 100% | 1000 nM | 6.4% | ZGPPISIDLPIILLRKMIEIEKQEKEKQQAANNARLLARI (C-terminal amide) [SEQ ID NO 290]
12.2 nM | 97.3% | 1000 nM | 69.5% | ZGPPISIDLPYWLLRKMIEIEKQEKEKQQAANNARLLARI (C-terminal amide) [SEQ ID NO 289]
17.1 nM | 100% | 1000 nM | 7.95% | IVLSLDVPIGLLQKVIEIEKQEKEKQQATTNARILARV-NH2 [SEQ ID NO 300]
100 nM | 100% | 1000 nM | 27.7% | ZGPPISIDLPTWLLRKVIEIEKQEKEKQQAANNRLLLDTI (C-terminal amide) [SEQ ID NO 284]
50.5 nM | 88.4% | 690 nM | 84.1% | ZGPPISIDLPTALLRKMIEIEKQEKEKQQAANNRLLLDTI (not fully specified; C-terminal amide) [SEQ ID NO 301]
100 nM | 88.3% | 1000 nM | 27.2% | ZGPPISIDLPIILLRKVIEIEKQEKEKQQAANNRLLLDTI (C-terminal amide) [SEQ ID NO 297]
27.2 nM | 100% | 582 nM | 100% | ZGPPISIDLPAALLRKMIEIEKQEKEKQQAANNRLLLDTI (not fully specified; C-terminal amide) [SEQ ID NO 303]
19.3 nM | 92.5% | 116 nM | 100% | ZGPPISIDLPHALLRKMIEIEKQEKEKQQAANNRLLLDTI (not fully specified; C-terminal amide) [SEQ ID NO 304]
40.3 nM | 87% | 520 nM | 95.3% | ZGPPISIDLPQILLRKVIEIEKQEKEKQQAANNRLLLDTI (C-terminal amide) [SEQ ID NO 293]
36.2 nM | 100% | 366 nM | 100% | ZGPPISIDLPQALLRKMIEIEKQEKEKQQAANNRLLLDTI (not fully specified; C-terminal amide) [SEQ ID NO 302]
6.66 nM | 65% | 100 nM | 4% | HHHHHHIVLSLDVPIGLLQILLEQARARAAREQATTNARILARN-NH2 [SEQ ID NO 296]
